From patent publication CN116813758A (INST MICROBIOLOGY CAS, dated 2023) come the findings set out here.

The target in this experiment is SARS-CoV-2原始毒株的RBD蛋白 (SARS-CoV-2 RBD-his) (SARS-CoV-2原始毒株, UniProt P0DTC2 319-541).

B1: 单链纳米抗体S43 (S43-his蛋白) (VHH)
VHH: QVQLQESGGGLVQPGGSLRLTCAPSGFTLDYYAIGWFRQAPGKEREGVSCISSNNSTYYADSVKGRFTISRDNAKNTVYLQMNSLKPEDTAVYYCAAEPDYSGVYYYTCGWTDFGSWGQGTQVTVSS
The molecule B1 returned a Kd of 0.12 nM.
